Measurements as given in patent publication US20080199467A1.

Target: Fc receptor on THP-1 cells
Assay: cell-based or functional assay

Chain of RAGE fusion protein TTP-4000 (Fc fusion) (chain): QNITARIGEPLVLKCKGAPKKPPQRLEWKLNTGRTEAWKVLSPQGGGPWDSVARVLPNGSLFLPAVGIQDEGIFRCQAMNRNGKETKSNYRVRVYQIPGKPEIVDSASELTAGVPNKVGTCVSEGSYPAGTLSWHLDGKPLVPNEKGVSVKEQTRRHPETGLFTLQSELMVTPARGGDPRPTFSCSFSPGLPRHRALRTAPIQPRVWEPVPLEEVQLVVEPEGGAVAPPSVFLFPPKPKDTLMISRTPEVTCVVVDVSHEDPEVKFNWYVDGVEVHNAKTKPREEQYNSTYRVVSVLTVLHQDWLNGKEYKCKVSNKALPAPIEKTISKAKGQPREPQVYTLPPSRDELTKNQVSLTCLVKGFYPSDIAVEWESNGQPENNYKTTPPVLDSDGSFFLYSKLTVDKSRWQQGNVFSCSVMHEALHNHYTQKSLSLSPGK

| Substance | TNF-α secretion from THP-1 cells on wells coated with 10 ug/well heat aggregated protein [ng/well] |
| --- | --- |
| RAGE fusion protein TTP-4000 (Fc fusion) | < 2 |
| human IgG1 (heat aggregated, coated on the well) (antibody) | > 40 |
